First the molecules themselves.
T1: IL-18 receptor (IL-18Rα / IL-18Rβ heterodimer) on HEK-Blue IL-18 reporter cells (UniProt Q13478 19-541; O95256 20-599, limits assumed)
T1 sequence (looked up) 1: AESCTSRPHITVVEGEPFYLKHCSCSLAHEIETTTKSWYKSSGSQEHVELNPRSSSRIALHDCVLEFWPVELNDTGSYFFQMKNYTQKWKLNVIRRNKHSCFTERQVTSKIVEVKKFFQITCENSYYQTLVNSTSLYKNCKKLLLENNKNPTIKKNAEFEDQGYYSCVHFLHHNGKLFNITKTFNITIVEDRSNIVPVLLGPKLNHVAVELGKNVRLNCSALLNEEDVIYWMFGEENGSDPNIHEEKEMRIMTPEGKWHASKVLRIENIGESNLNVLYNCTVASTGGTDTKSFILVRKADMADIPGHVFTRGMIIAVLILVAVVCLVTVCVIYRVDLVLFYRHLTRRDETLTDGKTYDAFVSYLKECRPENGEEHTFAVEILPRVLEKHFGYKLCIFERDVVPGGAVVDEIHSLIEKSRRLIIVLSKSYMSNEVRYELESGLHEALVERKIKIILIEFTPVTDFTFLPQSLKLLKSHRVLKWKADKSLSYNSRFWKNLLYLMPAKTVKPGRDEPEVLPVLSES
T1 sequence (looked up) 2: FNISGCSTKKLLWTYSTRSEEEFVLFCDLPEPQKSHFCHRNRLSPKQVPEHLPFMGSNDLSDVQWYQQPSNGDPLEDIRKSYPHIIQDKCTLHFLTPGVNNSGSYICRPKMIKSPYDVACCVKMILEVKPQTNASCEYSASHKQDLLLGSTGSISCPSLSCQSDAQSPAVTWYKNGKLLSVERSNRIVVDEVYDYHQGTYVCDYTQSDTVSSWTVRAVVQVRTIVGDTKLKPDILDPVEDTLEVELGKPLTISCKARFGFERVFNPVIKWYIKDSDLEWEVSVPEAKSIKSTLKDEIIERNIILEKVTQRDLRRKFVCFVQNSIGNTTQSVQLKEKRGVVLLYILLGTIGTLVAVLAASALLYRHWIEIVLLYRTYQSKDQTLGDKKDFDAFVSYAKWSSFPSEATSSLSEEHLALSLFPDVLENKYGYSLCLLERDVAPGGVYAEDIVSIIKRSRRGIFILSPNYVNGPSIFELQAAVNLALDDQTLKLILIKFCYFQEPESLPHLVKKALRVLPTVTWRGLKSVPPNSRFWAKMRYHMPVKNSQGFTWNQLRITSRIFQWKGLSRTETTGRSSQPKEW

T2: Human IL-18Rα ectodomain (amino acids 19-329), biotinylated (human, UniProt Q13478 19-329, biotin on the AviTag (BirA ligase))
T2 construct: range 19-329; Secreted from insect cells (gp67 signal peptide removed); also called hIL-18Rα; hIL18Rα
T2 sequence: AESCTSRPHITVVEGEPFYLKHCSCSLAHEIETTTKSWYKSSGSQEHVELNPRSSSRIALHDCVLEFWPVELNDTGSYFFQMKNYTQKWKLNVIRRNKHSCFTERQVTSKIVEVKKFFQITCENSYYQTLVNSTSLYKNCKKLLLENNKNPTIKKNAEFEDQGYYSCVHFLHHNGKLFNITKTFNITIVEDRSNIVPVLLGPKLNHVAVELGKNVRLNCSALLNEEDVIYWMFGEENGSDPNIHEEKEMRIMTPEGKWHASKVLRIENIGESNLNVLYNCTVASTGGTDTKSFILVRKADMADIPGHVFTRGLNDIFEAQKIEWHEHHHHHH

T3: Cynomolgus monkey IL-18Rα, biotinylated (cynomolgus monkey, UniProt A0A2K5V3J9 19-328, biotinylated)
T3 sequence: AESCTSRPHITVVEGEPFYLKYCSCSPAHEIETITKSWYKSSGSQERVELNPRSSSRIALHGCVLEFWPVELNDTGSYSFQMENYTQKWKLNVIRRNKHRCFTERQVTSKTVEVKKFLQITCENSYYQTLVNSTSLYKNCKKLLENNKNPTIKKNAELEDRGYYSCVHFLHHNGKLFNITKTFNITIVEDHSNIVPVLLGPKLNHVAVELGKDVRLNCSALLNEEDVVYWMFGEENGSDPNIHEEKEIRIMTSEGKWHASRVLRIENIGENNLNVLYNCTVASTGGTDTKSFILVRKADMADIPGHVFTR

T4: Human Interleukin-18 (mature form), wild type (human, UniProt Q14116 37-193)
T4 sequence: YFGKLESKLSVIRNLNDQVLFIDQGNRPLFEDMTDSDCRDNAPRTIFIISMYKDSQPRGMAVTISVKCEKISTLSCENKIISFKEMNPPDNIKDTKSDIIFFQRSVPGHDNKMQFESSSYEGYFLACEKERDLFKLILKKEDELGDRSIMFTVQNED

B1: SEQ ID NO: 19 (stabilized human DR-IL-18; SEQ ID NO: 89 plus C38S/C68D) (ligand)
chain: T4 sequence with C38S, M51K, K53S, Q56L, P57A, M60L, C68D, S105D, D110S, N111R
B2: SEQ ID NO: 36 (human DR-IL-18 variant hCS3) (ligand)
chain: T4 sequence with Y1R, M51T, M60K, S105D, D110K, N111H
notes: Engineered variant
B3: SEQ ID NO: 88 (second generation human DR-IL-18 variant 6-20) (ligand)
chain: T4 sequence with M51K, K53G, Q56R, S105A, D110N, N111R
notes: Engineered variant
B4: Human IL-18BP (amino acids 31-194), biotinylated (receptor)
chain: TPVSQTTTAATASVRSTKDPCPSQPPVFPAAKQCPALEVTWPEVEVPLNGTLSLSCVACSRFPNFSILYWLGNGSFIEHLPGRLWEGSTSRERGSTGTQLCKALVLEQLTPALHSTNFSCVLVDPEQVVQRHVVLAQLWAGLRATLPPTQEALPSSHSSPQQQGGLNDIFEAQKIEWHEHHHHHH
modifications: biotin on the AviTag (BirA ligase) where used biotinylated
notes: Soluble decoy receptor; also called hIL-18BP; recombinant IL-18BP

Positions count from the first letter of the chain named. Names and notes keep the numbering of the source.

Experiment [1] has as its target T1, IL-18 receptor (IL-18Rα / IL-18Rβ …). Nature of the experiment: cell-based or functional assay.
The target of experiment [2] is T2, Human IL-18Rα ectodomain (amino acids …). Nature of the experiment: SPR single-cycle kinetics, biotinylated hIL-18Rα on a streptavidin capture chip, IL-18 variant as analyte. How it is done: (§1) IL-18 receptor affinity. The affinities of human IL-18 and SEQ ID NO: 19 were determined for both human and cynomolgus monkey IL-18Rα and IL-18BP using surface plasmon resonance. Biotinylated receptor proteins were immobilized on a streptavidin capture chip and IL-18 or SEQ ID NO: 19 were applied as the free analyte. […] were used to determine binding. WT hIL-18 and SEQ ID NO: 19 had similar binding affinity for IL-18Rα in this assay (FIG. 37A).

The target in experiment [3] is T3, Cynomolgus monkey IL-18Rα, biotinylated. Kind of experiment: SPR single-cycle kinetics, biotinylated cynomolgus IL-18Rα on a streptavidin capture chip, IL-18 variant as analyte. The protocol: as §1
The target of experiment [4] is T2, Human IL-18Rα ectodomain (amino acids …). Kind of experiment: SPR; average of 2 studies. (In SPR one partner is held on a chip, and binding of the other changes the refractive index at the surface.)
Experiment [5] deals with B4. Nature of the experiment: SPR; average of 2 studies.
For experiment [6], the target named is B4. Nature of the experiment: SPR; KD ratio relative to WT IL-18. The protocol:
(§2) Experiments were conducted using a Biacore T100 and carried out at 25° C. Biotinylated IL-18Rα or IL-18BP were immobilized onto a Biacore biotin capture chip (Series S CAP sensor chip, GE Healthcare) to yield an Rmax of ˜50 RU (IL-18Rα) or ˜10 RU (IL-18BP). Measurements were made with serial dilutions of the IL-18 variants in HEPES buffered Saline-P+buffer (10 mM HEPES pH 7.4, 150 mM NaCl, 0.005% surfactant P20). The surface was regenerated by three 60-sec injections of regeneration buffer (3/4 (v/v) 8M guanidine hydrochloride with 1/4 (v/v) 1M sodium hydroxide). Experiments were performed in multiple channels simultaneously for increased observations. All data were analyzed with the Biacore T100 evaluation software version 2.0 with a 1:1 Langmuir binding model.
(§3) To additionally characterize the receptor binding activities of the DR-IL-18 variants, the cytokines were expressed recombinantly and surface plasmon resonance for IL-18Rα and IL-18BP was performed (see FIG. 5B for representative traces).

The target of experiment [7] is B4. Kind of experiment: SPR; KD for IL-18BP over KD for IL-18Rα. How it is done:
as §2, §3

The target of experiment [8] is B4. Nature of the experiment: on-yeast binding isotherm (flow cytometry). For orientation: Flow cytometry measures light scatter and fluorescence of single cells or particles in a stream.
Experiment [9] addresses B4. Nature of the experiment: SPR; KD(IL-18BP)/KD(IL-18Rα) normalized to WT IL-18.
Experiment [10] addresses B4. Kind of experiment: on-yeast binding isotherms; KD ratio relative to WT IL-18.
The target of experiment [11] is B4. Nature of the experiment: on-yeast binding isotherms; KD for IL-18BP over KD for IL-18Rα.
Experiment [12] has as its target B4. Nature of the experiment: SPR (Biacore T100), IL-18BP captured via biotin, IL-18 as analyte. How it is done: as §2, §3
The target of experiment [13] is B4. Kind of experiment: on-yeast binding isotherm (flow cytometry); members per FIG. 5A legend. The protocol:
(§4) Individual colonies of IL-18 yeast were grown overnight at 30° C. in SDCAA liquid media and induced in SGCAA liquid media for 1 day at 20° C. IL-18 display levels on yeast were verified by flow cytometry using an anti-cMyc tag antibody (anti-myc-PE; Cell Signaling Technologies). Receptor staining with biotinylated IL-18Rα (with or without IL-18R β) or biotinylated IL-18BP was performed in PBS supplemented with 0.5% BSA and 2 mM EDTA (PBE) on ice. All analysis was performed on a Sony SA3800 flow cytometer.
as §3

In experiment [14] the target is T2, Human IL-18Rα ectodomain (amino acids …). Nature of the experiment: SPR (Biacore T100), receptor captured via biotin, IL-18 as analyte. How it is done:
as §2, §3

Experiment [15] addresses B4. Nature of the experiment: on-yeast binding isotherm (flow cytometry), drawn summary table, column IL18BP (KD); IL18Rα column reads N.D.
Experiment [16] deals with T4, Human Interleukin-18 (mature form), …. Kind of experiment: cell-based or functional assay.
Experiment [17] has the same target. Nature of the experiment: competition on yeast (flow cytometry): hIL-18BP titrated against a fixed 100 nM biotinylated hIL-18Rα on yeast-displayed IL-18. The protocol: By contrast, IL-18BP effectively neutralizes the IL-18 E42A, K89A and E42A/K89A previously described (Kim et al., 2001, Proc. Natl. Acad. Sci., 98(6):3304-3309) (shown in chart on right) [E42 and K89 of Kim et al. are E6 and K53 of SEQ ID NO: 30, respectively]. Biotinylated IL-18Rα was kept at a fixed concentration of 100 nM for all samples.
as §4

A word on the Kd: it is the free concentration of one partner at which half of the binding sites on the other are occupied at equilibrium, for simple one-to-one binding. With B1, in [1], the “EC50-#1 (M), HEK-Blue reporter” value was 1.24e-10 M and the “EC50-#2 (M), HEK-Blue reporter” value was found to be 7.9e-11 M. The affinity in [2], expressed as Kd, was 18.8 nM. The molecule further registered a dissociation constant (Kd) in experiment [3] of 10.9 nM.

Broadly, the EC50 is the concentration that produces a half-maximal response. Take B2: the Kd worked out at 9.1 nM in experiment [4]; 19.3 nM in [5]; 11600 nM in experiment [8]; 18.6 nM in experiment [12]; 8.18 nM in [14]. Further, the figures for the “Dissociation Constant Ratio normalized to WT IL-18” value in experiment [6] and in [10] were 3500 and 348, respectively. For the same molecule, the “KD ratio IL-18BP/IL-18Rα” value was found to be 2.27 in experiment [7] and 103 in experiment [11]. Also, the “IL-18 BP:Rα Dissociation Constant Ratio” value in experiment [9] is 4350. This molecule showed a 50% effective concentration (EC50) in [13] greater than 1000 nM.

With B3, the Kd in experiment [8] and in [15] was 340 nM each time.

B4: in [16], the “IC50 of recombinant IL-18BP in the HEK Blue IL-18 signaling assay (hIL-18 fixed at 5 nM)” value came to 3 nM. For the same molecule, the “IC50 (read off the curve)” value in experiment [17] was roughly 20 nM.

Source of the values: US20230277625A1 (SIMCHA IL 18, published 2023).
